Measured values from paper PMC7479153, “GFP fluorescence tagging alters dynamin-related protein 1 oligomerization dynamics and creates disassembly-refractory puncta to mediate mitochondrial fission” (Scientific Reports, 2020).

B1: mEGFP-Drp1 (N-terminally mEGFP-tagged Drp1 isoform 3), recombinant from E. coli (natural protein, human, UniProt O00429-4 1-699, looked up)
chain: MEALIPVINKLQDVFNTVGADIIQLPQIVVVGTQSSGKSSVLESLVGRDLLPRGTGIVTRRPLILQLVHVSQEDKRKTTGEENGVEAEEWGKFLHTKNKLYTDFDEIRQEIENETERISGNNKGVSPEPIHLKIFSPNVVNLTLVDLPGMTKVPVGDQPKDIELQIRELILRFISNPNSIILAVTAANTDMATSEALKISREVDPDGRRTLAVITKLDLMDAGTDAMDVLMGRVIPVKLGIIGVVNRSQLDINNKKSVTDSIRDEYAFLQKKYPSLANRNGTKYLARTLNRLLMHHIRDCLPELKTRINVLAAQYQSLLNSYGEPVDDKSATLLQLITKFATEYCNTIEGTAKYIETSELCGGARICYIFHETFGRTLESVDPLGGLNTIDILTAIRNATGPRPALFVPEVSFELLVKRQIKRLEEPSLRCVELVHEEMQRIIQHCSNYSTQELLRFPKLHDAIVEVVTCLLRKRLPVTNEMVHNLVAIELAYINTKHPDFADACGLMNNNIEEQRRNRLARELPSAVSRDKVASGGGGVGDGVQEPTTGNWRGMLKTSKAEELLAEEKSKPIPIMPASPQKGHAVNLLDVPVPVARKLSAREQRDCEVIERLIKSYFLIVRKNIQDSVPKAVMHFLVNHVKDTLQSELVGQLYKSSLLDDLLTESEDMAQRRKEAADMLKALQGASQIIAEIRETHLW
notes: dynamin-related protein 1 (Drp1), human, isoform 3, printed length 699 aa; mEGFP is EGFP with A206K (also denoted A207K); fusion sub-cloned from pEGFP-C1 into pET28a; Monomer ~111 kDa as printed; source: E. coli (pET28a), purified to apparent homogeneity, then gel filtration (ENrich SEC 650); not shown: mEGFP, N-terminal, kept
B2: Drp1-wt (N-terminal 6XHis-tagged human dynamin-related protein 1, isoform 3) (natural protein, UniProt O00429-4 1-699, looked up)
chain: B1 chain
notes: dynamin-related protein 1 (Drp1), human, isoform 3, printed length 699 aa; also called unlabeled Drp1-wt; native-like His-tagged Drp1; source: E. coli, purified to apparent homogeneity, then gel filtration (ENrich SEC 650)
B3: Drp1-BODIPY FL (Drp1 labeled on surface Cys with BODIPY-FL C1-iodoacetamide) (natural protein, human, UniProt O00429-4 1-699, looked up)
chain: B1 chain
modifications: BODIPY-FL iodoacetamide on Cys; primary targets of thiol modification are surface residues C505 and C607; ~2 mol dye/mol protein
notes: dynamin-related protein 1 (Drp1), human, isoform 3, printed length 699 aa; also called BODIPY-labeled Drp1; dye-labeled Drp1; source: E. coli, purified, then labeled with thiol-reactive BODIPY-FL iodoacetamide
B4: mEGFP-Drp1 (N-terminally mEGFP-tagged Drp1 isoform 3), expressed in mammalian cells (natural protein, human, UniProt O00429-4 1-699, looked up)
chain: B1 chain
notes: dynamin-related protein 1 (Drp1), human, isoform 3, printed length 699 aa; mEGFP is EGFP with A206K; In wt MEFs and HeLa cells endogenous Drp1 is also present; also called cytosolic mEGFP-Drp1; source: wt MEFs, Drp1-null MEFs and HeLa cells, transfected (pEGFP-C1), in living cells; not shown: mEGFP, N-terminal, kept
B5: Drp1-mEGFP (C-terminally mEGFP-tagged Drp1 isoform 3), recombinant from E. coli (natural protein, human, UniProt O00429-4 1-699, looked up)
chain: B1 chain
B6: Drp1-AF488 (Drp1 labeled on surface Cys with Alexa Fluor 488 C5-maleimide) (natural protein, human, UniProt O00429-4 1-699, looked up)
chain: B1 chain
modifications: AF488 maleimide on Cys; primary targets of thiol modification are surface residues C505 and C607; ~2 mol dye/mol protein
notes: dynamin-related protein 1 (Drp1), human, isoform 3, printed length 699 aa; also called AF488-labeled Drp1; dye-labeled Drp1; source: E. coli, purified, then labeled with thiol-reactive AF488 maleimide

How the values were obtained:
[1] = target: the molecule itself; assay: cell-based or functional assay
[2] = target: the molecule itself; assay: SEC-MALS; Superose 6 10/300 GL, 20 mM HEPES pH 7.5, 150 mM KCl, 1 mM DTT; loading protein concentration varied, 500 uL injected; no nucleotide
[3] = target: the molecule itself; assay: fluorescence correlation spectroscopy (single-point FCS); 0.5 uM fluorescently labeled protein in solution, 25 C, 20 mM HEPES pH 7.5, 150 mM KCl, 1 mM DTT; without and with 1 mM GMP-PCP and 1 mM MgCl2 (30 min); unlabeled Drp1-wt (1 uM final, 2X molar excess) added where it is the partner
[4] = target: the molecule itself; assay: number and brightness (N&B) analysis; living transfected wt MEFs, Drp1-null MEFs and HeLa cells, 37 C; brightness normalised to that of mEGFP alone taken as the monomer; puncta on mitochondria left out

| Protein | decrease in GTP turnover (kcat) relative to Drp1-wt, basal and cardiolipin-stimulated, malachite green assay, 0.5 uM protein [1] [%] | stoichiometry N [2] | binding result [3] | further results |
| --- | --- | --- | --- | --- |
| B1 | > 50 | ≥ 4 |  |  |
| B2 |  | ≥ 2 |  |  |
| B3 |  |  | binds |  |
| B4 |  |  |  | stoichiometry N [4]: ~4 |
| B5 | > 50 |  |  |  |
| B6 |  |  | binds |  |
